Measurements: paper PMC6189472

Tests used:
[1] = molecular target: TCR/CD3 complex (human (endogenous in Jurkat)) (UniProt P07766); assay: FRAP on micropatterned antibody spots; CD6-GFP Jurkat T cells on spots of 100, 10 or 1% anti-CD3 surrounded by fibronectin; 37 C; circular ROI of 2.1 um on spots and on surrounding fibronectin; single exponential fit
[2] = molecular target: TCR/CD3 complex (human (endogenous in Jurkat)) (UniProt P07766); assay: recruitment to antibody-coated beads (confocal microscopy); CD6-GFP Jurkat T cells on fibronectin-coated coverslips with 4.5 um anti-CD3-coated (Dynal CD3) or fibronectin-coated beads; live cells at RT; CD6-GFP intensity at bead contact against the opposite side of the cell

UniProt P07766, sequence (P07766 whole entry, looked up, one chain of several): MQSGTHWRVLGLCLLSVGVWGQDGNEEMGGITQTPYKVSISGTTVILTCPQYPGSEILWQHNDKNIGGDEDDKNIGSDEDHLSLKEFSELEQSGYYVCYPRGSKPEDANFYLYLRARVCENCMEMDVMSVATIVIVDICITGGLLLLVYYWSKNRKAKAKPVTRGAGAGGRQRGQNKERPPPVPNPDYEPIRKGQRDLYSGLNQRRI

fraction of CD6-GFP immobilized on 10 and 100% αCD3 spots [1]: 30%
fold enrichment at αCD3-coated beads against fibronectin-coated beads [2]: 3 fold
B1: CD6-GFP (receptor)
chain: HPSPAPPDQLNTSSAESELWEPGERLPVRLTNGSSSCSGTVEVRLEASWEPACGALWDSRAAEAVCRALGCGGAEAASQLAPPTPELPPPPAAGNTSVAANATLAGAPALLCSGAEWRLCEVVEHACRSDGRRARVTCAENRALRLVDGGGACAGRVEMLEHGEWGSVCDDTWDLEDAHVVCRQLGCGWAVQALPGLHFTPGRGPIHRDQVNCSGAEAYLWDCPGLPGQHYCGHKEDAGAVCSEHQSWRLTGGADRCEGQVEVHFRGVWNTVCDSEWYPSEAKVLCQSLGCGTAVERPKGLPHSLSGRMYYSCNGEELTLSNCSWRFNNSNLCSQSLAARVLCSASRSLHNLSTPEVPASVQTVTIESSVTVKIENKESRELMLLIPSIVLGILLLGSLIFIAFILLRIKGKYALPVMVNHQHLPTTIPAGSNSYQPVPITIPKEVFMLPIQVQAPPPEDSDSGSDSDYEHYDFSAQPPVALTTFYNSQRHRVTDEEVQQSRFQMPPLEEGLEELHASHIPTANPGHCITDPPSLGPQYHPRSNSESSTSSGEDYCNSPKSKLPPWNPQVFSSERSSFLEQPPNLELAGTQPAFSAGPPADDSSSTSSGEWYQNFQPPPQPPSEEQFGCPGSPSPQPDSTDNDDYDDISAA
